Results on seven molecules are retold here after US20230407373A1 (priority 2020, published 2023).

Sequences and labels used below:
B1: HNRNPH2: host protein, UniProt P55795 (protein, UniProt P55795 1-449, looked up)
Heterogeneous nuclear …: MMLSTEGREGFVVKVRGLPWSCSADEVMRFFSDCKIQNGTSGIRFIYTREGRPSGEAFVELESEEEVKLALKKDRETMGHRYVEVFKSNSVEMDWVLKHTGPNSPDTANDGFVRLRGLPFGCSKEEIVQFFSGLEIVPNGMTLPVDFQGRSTGEAFVQFASQEIAEKALKKHKERIGHRYIEIFKSSRAEVRTHYDPPRKLMAMQRPGPYDRPGAGRGYNSIGRGAGFERMRRGAYGGGYGGYDDYGGYNDGYGFGSDRFGRDLNYCFSGMSDHRYGDGGSSFQSTTGHCVHMRGLPYRATENDIYNFFSPLNPMRVHIEIGPDGRVTGEADVEFATHEDAVAAMAKDKANMQHRYVELFLNSTAGTSGGAYDHSYVELFLNSTAGASGGAYGSQMMGGMGLSNQSSYGGPASQQLSGGYGGGYGGQSSMSGYDQVLQENSSDYQSNLA
B2: XRN2: host protein, UniProt Q9H0D6 (protein, UniProt Q9H0D6 1-950, looked up)
5'-3' exoribonuclease 2: MGVPAFFRWLSRKYPSIIVNCVEEKPKECNGVKIPVDASKPNPNDVEFDNLYLDMNGIIHPCTHPEDKPAPKNEDEMMVAIFEYIDRLFSIVRPRRLLYMAIDGVAPRAKMNQQRSRRFRASKEGMEAAVEKQRVREEILAKGGFLPPEEIKERFDSNCITPGTEFMDNLAKCLRYYIADRLNNDPGWKNLTVILSDASAPGEGEHKIMDYIRRQRAQPNHDPNTHHCLCGADADLIMLGLATHEPNFTIIREEFKPNKPKPCGLCNQFGHEVKDCEGLPREKKGKHDELADSLPCAEGEFIFLRLNVLREYLERELTMASLPFTFDVERSIDDWVFMCFFVGNDFLPHLPSLEIRENAIDRLVNIYKNVVHKTGGYLTESGYVNLQRVQMIMLAVGEVEDSIFKKRKDDEDSFRRRQKEKRKRMKRDQPAFTPSGILTPHALGSRNSPGSQVASNPRQAAYEMRMQNNSSPSISPNTSFTSDGSPSPLGGIKRKAEDSDSEPEPEDNVRLWEAGWKQRYYKNKFDVDAADEKFRRKVVQSYVEGLCWVLRYYYQGCASWKWYYPFHYAPFASDFEGIADMPSDFEKGTKPFKPLEQLMGVFPAASGNFLPPSWRKLMSDPDSSIIDFYPEDFAIDLNGKKYAWQGVALLPFVDERRLRAALEEVYPDLTPEETRRNSLGGDVLFVGKHHPLHDFILELYQTGSTEPVEVPPELCHGIQGKFSLDEEAILPDQIVCSPVPMLRDLTQNTVVSINFKDPQFAEDYIFKAVMLPGARKPAAVLKPSDWEKSSNGRQWKPQLGFNRDRRPVHLDQAAFRTLGHVMPRGSGTGIYSNAAPPPVTYQGNLYRPLLRGQAQIPKLMSNMRPQDSWRGPPPLFQQQRFDRGVGAEPLLPWNRMLQTQNAAFQPNQYQMLAGPGGYPPRRDDRGGRQGYPREGRKYPLPPPSGRYNWN
B3: DDX1: host protein, UniProt Q92499 (protein, UniProt Q92499 1-740, looked up)
ATP-dependent RNA helicase …: MAAFSEMGVMPEIAQAVEEMDWLLPTDIQAESIPLILGGGDVLMAAETGSGKTGAFSIPVIQIVYETLKDQQEGKKGKTTIKTGASVLNKWQMNPYDRGSAFAIGSDGLCCQSREVKEWHGCRATKGLMKGKHYYEVSCHDQGLCRVGWSTMQASLDLGTDKFGFGFGGTGKKSHNKQFDNYGEEFTMHDTIGCYLDIDKGHVKFSKNGKDLGLAFEIPPHMKNQALFPACVLKNAELKFNFGEEEFKFPPKDGFVALSKAPDGYIVKSQHSGNAQVTQTKFLPNAPKALIVEPSRELAEQTLNNIKQFKKYIDNPKLRELLIIGGVAARDQLSVLENGVDIVVGTPGRLDDLVSTGKLNLSQVRFLVLDEADGLLSQGYSDFINRMHNQIPQVTSDGKRLQVIVCSATLHSFDVKKLSEKIMHFPTWVDLKGEDSVPDTVHHVVVPVNPKTDRLWERLGKSHIRTDDVHAKDNTRPGANSPEMWSEAIKILKGEYAVRAIKEHKMDQAIIFCRTKIDCDNLEQYFIQQGGGPDKKGHQFSCVCLHGDRKPHERKQNLERFKKGDVRFLICTDVAARGIDIHGVPYVINVTLPDEKQNYVHRIGRVGRAERMGLAISLVATEKEKVWYHVCSSRGKGCYNTRLKEDGGCTIWYNEMQLLSEIEEHLNCTISQVEPDIKVPVDEFDGKVTYGQKRAAGGGSYKGHVDILAPTVQELAALEKEAQTSFLHLGYLPNQLFRTF
B4: TXN (protein, UniProt P10599 2-105, looked up)
Thioredoxin: VKQIESKTAFQEALDAAGDKLVVVDFSATWCGPCKMIKPFFHSLSEKYSNVIFLEVDVDDCQDVASECEVKCMPTFQFFKKGQKVGEFSGANKEKLEATINELV
B5: UPF1: host protein, UniProt Q92900 (protein, UniProt Q92900 1-1129, looked up)
Regulator of nonsense …: MSVEAYGPSSQTLTFLDTEEAELLGADTQGSEFEFTDFTLPSQTQTPPGGPGGPGGGGAGGPGGAGAGAAAGQLDAQVGPEGILQNGAVDDSVAKTSQLLAELNFEEDEEDTYYTKDLPIHACSYCGIHDPACVVYCNTSKKWFCNGRGNTSGSHIVNHLVRAKCKEVTLHKDGPLGETVLECYNCGCRNVFLLGFIPAKADSVVVLLCRQPCASQSSLKDINWDSSQWQPLIQDRCFLSWLVKIPSEQEQLRARQITAQQINKLEELWKENPSATLEDLEKPGVDEEPQHVLLRYEDAYQYQNIFGPLVKLEADYDKKLKESQTQDNITVRWDLGLNKKRIAYFTLPKTDSGNEDLVIIWLRDMRLMQGDEICLRYKGDLAPLWKGIGHVIKVPDNYGDEIAIELRSSVGAPVEVTHNFQVDFVWKSTSFDRMQSALKTFAVDETSVSGYIYHKLLGHEVEDVIIKCQLPKRFTAQGLPDLNHSQVYAVKTVLQRPLSLIQGPPGTGKTVTSATIVYHLARQGNGPVLVCAPSNIAVDQLTEKIHQTGLKVVRLCAKSREAIDSPVSFLALHNQIRNMDSMPELQKLQQLKDETGELSSADEKRYRALKRTAERELLMNADVICCTCVGAGDPRLAKMQFRSILIDESTQATEPECMVPVVLGAKQLILVGDHCQLGPVVMCKKAAKAGLSQSLFERLVVLGIRPIRLQVQYRMHPALSAFPSNIFYEGSLQNGVTAADRVKKGFDFQWPQPDKPMFFYVTQGQEEIASSGTSYLNRTEAANVEKITTKLLKAGAKPDQIGIITPYEGQRSYLVQYMQFSGSLHTKLYQEVEIASVDAFQGREKDFIILSCVRANEHQGIGFLNDPRRLNVALTRARYGVIIVGNPKALSKQPLWNHLLNYYKEQKVLVEGPLNNLRESLMQFSKPRKLVNTINPGARFMTTAMYDAREAIIPGSVYDRSSQGRPSSMYFQTHDQIGMISAGPSHVAAMNIPIPFNLVMPPMPPPGYFGQANGPAAGRGTPKGKTGRGGRQKNRFGLPGPSQTNLPNSQASQDVASQPFSQGALTQGYISMSQPSQMSQPGLSQPELSQDSYLGDEFKSQIDVALSQDSTYQGERAYQHGGVTGLSQY
B6: SRSF10 (protein, UniProt O75494 1-262, looked up)
Serine/arginine-rich splicing …: MSRYLRPPNTSLFVRNVADDTRSEDLRREFGRYGPIVDVYVPLDFYTRRPRGFAYVQFEDVRDAEDALHNLDRKWICGRQIEIQFAQGDRKTPNQMKAKEGRNVYSSSRYDDYDRYRRSRSRSYERRRSRSRSFDYNYRRSYSPRNSRPTGRPRRSRSHSDNDRFKHRNRSFSRSKSNSRSRSKSQPKKEMKAKSRSRSASHTKTRGTSKTDSKTHYKSGSRYEKESRKKEPPRSKSQSRSQSRSRSKSRSRSWTSPKSSGH
B7: LRRC59 (protein, UniProt Q96AG4 1-307, looked up)
Leucine-rich …: MTKAGSKGGNLRDKLDGNELDLSLSDLNEVPVKELAALPKATILDLSCNKLTTLPSDFCGLTHLVKLDLSKNKLQQLPADFGRLVNLQHLDLLNNKLVTLPVSFAQLKNLKWLDLKDNPLDPVLAKVAGDCLDEKQCKQCANKVLQHMKAVQADQERERQRRLEVEREAEKKREAKQRAKEAQERELRKREKAEEKERRRKEYDALKAAKREQEKKPKKEANQAPKSKSGSRPRKPPPRKHTRSWAVLKLLLLLLLFGVAGGLVACRVTELQQQPLCTSVNTIYDNAVQGLRRHEILQWVLQTDSQQ

One assay concerns gRNA of HCoV-OC43. The assay is classed as binding. Particulars: type g_36_m; HCoV-OC43-infected HCT-8 cells, 36 hpi, Probe I.
For the molecule B1, the “target (spectral count)” value is 12.

In the case of B2, the “target (spectral count)” value was 8.

Turning to B3, the “target (spectral count)” value stood at 12.

Still in this assay, the particulars now being: type g_36_m; uninfected-probe control, 36 hpi, Probe I.
As to B1, the “background (spectral count)” value is 1.

In the case of B2, the “background (spectral count)” value is on record as 1.

As to B3, the “background (spectral count)” value came out at 1.

The assay is the same for the next values; noted with them: type n_48_v: 48 hours post-infection, infected cells, OC43 Probe I; unweighted spectral count.
For B1, the “target (spectral count, OC43 Probe I RNP capture)” value came to 10.

On to B2, for which the “target (spectral count, OC43 Probe I RNP capture)” value came out at 9.

For B4, the “target (spectral count, OC43 Probe I RNP capture)” value is reported as 8.

On to B3, for which the “target (spectral count, OC43 Probe I RNP capture)” value is recorded as 12.

Take B5: the “target (spectral count, OC43 Probe I RNP capture)” value is 13.

On to B6, for which the “target (spectral count, OC43 Probe I RNP capture)” value is 9.

In the case of B7, the “target (spectral count, OC43 Probe I RNP capture)” value came to 9.

The assay is the same for the next values; noted with them: type n_48_v: 48 hours post-infection, no-probe control on infected cells.
As to B1, the “background (spectral count, no-probe control)” value was determined as 1.

Turning to B2, the “background (spectral count, no-probe control)” value is 1.

As to B4, the “background (spectral count, no-probe control)” value is 1.

Take B3: the “background (spectral count, no-probe control)” value amounted to 1.

For B5, the “background (spectral count, no-probe control)” value is listed as 1.

As to B6, the “background (spectral count, no-probe control)” value amounted to 1.

B7: the “background (spectral count, no-probe control)” value stood at 1.

The next assay deals with HCoV-OC43 gRNA and sgRNA. Type of assay: binding. Particulars: 24 hpi; type n_24_v; tested against no-probe control; FDR<10%.
As for B1, the “target (unweighted spectral count, OC43 Probe II capture)” value is 4.

Staying with this assay, now noted: 36 hpi; type n_36_v; tested against no-probe control; FDR<10%.
As to B1, the “target (unweighted spectral count, OC43 Probe II capture)” value amounted to 8.

As for B4, the “target (unweighted spectral count, OC43 Probe II capture)” value turned out to be 6.

For B3, the “target (unweighted spectral count, OC43 Probe II capture)” value stood at 9.

In the case of B5, the “target (unweighted spectral count, OC43 Probe II capture)” value was 16.

B6: the “target (unweighted spectral count, OC43 Probe II capture)” value was determined as 6.

As to B7, the “target (unweighted spectral count, OC43 Probe II capture)” value came out at 6.

The same assay, now with this note: OC43 Probe II, 24 hpi (type n_24_v), infected cells; tested against no-probe control.
On to B3, for which the “target (unweighted spectral count)” value is recorded as 7.

With B5, the “target (unweighted spectral count)” value is listed as 8.

Consider B6, for which the “target (unweighted spectral count)” value was determined as 6.

The same assay, now with this note: type n_48_v; 48 hpi; OC43 Probe II capture on infected cells.
For the molecule B1, the “target (unweighted spectral count, OC43 Probe II)” value is 10.

On to B2, for which the “target (unweighted spectral count, OC43 Probe II)” value was 10.

As for B3, the “target (unweighted spectral count, OC43 Probe II)” value is recorded as 11.

Consider B5, for which the “target (unweighted spectral count, OC43 Probe II)” value is 16.

With B6, the “target (unweighted spectral count, OC43 Probe II)” value came out at 9.

In the case of B7, the “target (unweighted spectral count, OC43 Probe II)” value came out at 5.

Still in this assay, the particulars now being: type n_48_v; 48 hpi; no-probe control on infected cells.
Regarding B1, the “background (unweighted spectral count, no-probe control)” value was 1.

In the case of B2, the “background (unweighted spectral count, no-probe control)” value is listed as 1.

For the molecule B3, the “background (unweighted spectral count, no-probe control)” value stood at 1.

Regarding B5, the “background (unweighted spectral count, no-probe control)” value is 1.

Turning to B6, the “background (unweighted spectral count, no-probe control)” value is 1.

Regarding B7, the “background (unweighted spectral count, no-probe control)” value was found to be 1.

Still in this assay, the particulars now being: type s_36_m; HCoV-OC43-infected HCT-8 cells, 36 hpi, Probe II.
B1: the “target (spectral count)” value was found to be 8.

For B3, the “target (spectral count)” value was found to be 9.

Consider B5, for which the “target (spectral count)” value is given as 16.

The assay is the same for the next values; noted with them: type s_36_m; uninfected-probe control, 36 hpi, Probe II.
Regarding B1, the “background (spectral count)” value was 1.

For the molecule B3, the “background (spectral count)” value worked out at 1.

As to B5, the “background (spectral count)” value worked out at 1.
